According to patent US20040067903A1 (published 2004):

Tests used:
Assay in all cases: GST pull-down from GDP+AlF4- treated human platelet lysate, western blot
[1] = target: T1, Gα12 (endogenous, human platelet lysate) (human, UniProt Q03113 1-381)
T1 construct: mature
T1 sequence (looked up): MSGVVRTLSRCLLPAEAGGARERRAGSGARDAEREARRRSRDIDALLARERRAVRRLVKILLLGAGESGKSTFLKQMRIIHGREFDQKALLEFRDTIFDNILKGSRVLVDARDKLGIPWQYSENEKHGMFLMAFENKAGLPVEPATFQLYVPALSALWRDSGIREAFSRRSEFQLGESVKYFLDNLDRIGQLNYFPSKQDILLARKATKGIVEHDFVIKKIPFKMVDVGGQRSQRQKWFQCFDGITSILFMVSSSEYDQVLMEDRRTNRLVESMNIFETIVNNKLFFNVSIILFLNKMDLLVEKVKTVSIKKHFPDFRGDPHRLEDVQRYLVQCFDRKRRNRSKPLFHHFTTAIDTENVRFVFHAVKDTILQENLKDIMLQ
Description: (§1) Bound antibody was detected using goat […] (BioRad, Hercules, Calif.) and Supersignal West Pico ECL reagent (Pierce, Rockford, Ill.).
(§2) In order to determine the target alpha subunits of RGS18, binding experiments were performed using GST-RGS18 as prepared in Example 4 and lysates of human platelets. A similar method has been used to determine the binding specificity of hRGS16 using lysates from Jurkat cells (164). […] For these experiments, platelets were lysed in a Triton X-100 containing buffer and resuspended to 1 mg/ml. The lysate was then treated with GDP, which holds the alpha subunit in the GDP-bound “in-activated” state, or GDP+AlF₄⁻ that mimics the transition state of the Gα subunit. Recombinant GST-RGS18 bound to Sepharose-4 beads was added to the treated lysates, incubated and washed several times. Bound protein was eluted in Laemmli buffer and subjected to SDS-PAGE followed by western blot analysis. A panel of G protein alpha subunit specific antibodies was used to determine which alpha subunits bind to RGS18. […] In contrast, in lysates that have been treated with GDP+AlF₄⁻, RGS18 binds a significant amount of alpha subunit detected by antibodies directed against G_{αi1/2}, G_{α0/i3} and G_{αq/11}. […] Neither GST nor Sepharose 4B alone binds to any of these alpha subunits in either GDP or GDP+AlF₄⁻ treated platelet lysates (data not shown). The binding selectivity of RGS18 is consistent with that found for other RGS proteins which selectively bind to members of the Gαi family and/or Gαq family (14).

[2] = target: T2, Gαq (endogenous, human platelet lysate) (human, UniProt P50148 1-359)
T2 construct: mature; also called Gαq/11; alpha subunit detected by antibodies directed against Gαq/11
T2 sequence (looked up): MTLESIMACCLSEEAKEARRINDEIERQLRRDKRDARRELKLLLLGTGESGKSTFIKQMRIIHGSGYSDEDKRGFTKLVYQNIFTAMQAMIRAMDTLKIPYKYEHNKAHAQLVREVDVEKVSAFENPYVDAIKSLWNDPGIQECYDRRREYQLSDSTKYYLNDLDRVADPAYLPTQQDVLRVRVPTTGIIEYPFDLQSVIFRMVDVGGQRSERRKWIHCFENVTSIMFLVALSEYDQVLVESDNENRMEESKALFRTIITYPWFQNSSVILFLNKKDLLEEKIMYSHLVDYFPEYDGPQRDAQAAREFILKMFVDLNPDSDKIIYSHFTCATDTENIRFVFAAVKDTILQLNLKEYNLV
Description: as §1, §2

[3] = target: T3, Gαs (endogenous, human platelet lysate) (human, UniProt P63092 2-394)
T3 construct: mature
T3 sequence (P63092 2-394): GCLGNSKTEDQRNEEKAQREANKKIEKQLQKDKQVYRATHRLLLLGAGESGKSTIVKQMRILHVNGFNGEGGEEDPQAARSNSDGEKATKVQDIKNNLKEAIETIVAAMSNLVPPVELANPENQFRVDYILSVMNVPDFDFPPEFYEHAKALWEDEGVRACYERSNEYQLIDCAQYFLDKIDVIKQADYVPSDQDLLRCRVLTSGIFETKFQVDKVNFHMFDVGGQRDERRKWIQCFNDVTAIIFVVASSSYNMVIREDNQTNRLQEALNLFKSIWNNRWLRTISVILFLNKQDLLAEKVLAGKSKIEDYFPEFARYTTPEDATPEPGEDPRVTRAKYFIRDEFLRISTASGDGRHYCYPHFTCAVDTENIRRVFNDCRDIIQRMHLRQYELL
Description: as §1, §2

[4] = target: T4, Gαz (endogenous, human platelet lysate) (human, UniProt P19086 2-355)
T4 construct: mature; also called printed once as Gα2
T4 sequence (P19086 2-355): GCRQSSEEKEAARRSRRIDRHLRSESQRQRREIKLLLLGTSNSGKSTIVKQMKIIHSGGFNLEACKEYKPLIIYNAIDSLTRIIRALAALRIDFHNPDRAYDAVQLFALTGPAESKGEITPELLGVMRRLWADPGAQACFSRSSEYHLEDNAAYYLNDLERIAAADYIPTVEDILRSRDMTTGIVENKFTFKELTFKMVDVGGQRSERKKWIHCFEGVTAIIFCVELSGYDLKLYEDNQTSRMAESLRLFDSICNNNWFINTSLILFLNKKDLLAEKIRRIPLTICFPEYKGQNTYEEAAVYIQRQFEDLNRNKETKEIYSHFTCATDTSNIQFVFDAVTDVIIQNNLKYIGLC
Description: as §1, §2

B1: GST-RGS18 fusion protein coupled to glutathione-Sepharose 4B (other)
chain: METTLLFFSQINMCESKEKTFFKLIHGSGKEETSKEAKIRAKEKRNRLSLLVQKPEFHEDTRSSRSGHLAKETRVSPEEAVKWGESFDKLLSHRDGLEAFTRFLKTEFSEENIEFWIACEDFKKSKGPQQIHLKAKAIYEKFIQTDAPKEVNLDFHTKEVITNSITQPTLHSFDAAQSRVYQLMEQDSYTRFLKSDIYLDLMEGRPQRPTNLRRRSRSFTCNEFQDVQSDVAIWL
notes: The sense primer carries a few nucleotides upstream of the ATG, so a short extra linker between GST and Met1 is likely; also called recombinant GST-RGS18; GST-tagged fusion protein of RGS18; not shown: glutathione S-transferase (GST) tag encoded by plasmid pGEX-5X-1, N-terminal to RGS18 (in-frame Bam HI fusion); the fili
B1: no binding [1]; binds [2]; no binding [3]. B1: no binding [4].
